Measurements reported in publication PMC6039102 (Nature, 2018).
Where “and” joins values, the source holds several entries; their conditions need not be identical. Equal values may be shown once.

B1: KSHV smallest capsid protein (SCP) (natural protein)
chain: MSNFKVRDPVIQERLDHDYAHHPLVARMNTLDQGNMSQAEYLVQKRHYLVFLIAHHYYEAYLRRMGGIQRRDHLQTLRDQKPRERADRVSAASAYDAGTFTVPSRPGPASGTTPGGQDSLGVSGSSITTLSSGPHSLSPASDILTTLSSTTETAAPAVADARKPPSGKKK
B2: KSHV major capsid protein (MCP) (natural protein)
chain: MEATLEQRPFPYLATEANLLTQIKESAADGLFKSFQLLLGKDAREGSVRFEALLGVYTNVVEFVKFLETALAAACVNTEFKDLRRMIDGKIQFKISMPTIAHGDGRRPNKQRQYIVMKACNKHHIGAEIELAAADIELLFAEKETPLDFTEYAGAIKTITSALQFGMDALERGLVDTVLAVKLRHAPPVFILKTLGDPVYSERGLKKAVKSDMVSMFKAHLIEHSFFLDKAELMTRGKQYVLTMLSDMLAAVCEDTVFKGVSTYTTASGQQVAGVLETTDSVMRRLMNLLGQVESAMSGPAAYASYVVRGANLVTAVSYGRAMRNFEQFMARIVDHPNALPSVEGDKAALADGHDEIQRTRIAASLVKIGDKFVAIESLQRMYNETQFPCPLNRRIQYTYFFPVGLHLPVPRYSTSVSVRGVESPAIQSTETWVVNKNNVPLCFGYQNALKSICHPRMHNPTQSAQALNQAFPDPDGGHGYGLRYEQTPNMNLFRTFHQYYMGKNVAFVPDVAQKALVTTEDLLHPTSHRLLRLEVHPFFDFFVHPCPGARGSYRATHRTMVGNIPQPLAPREFQESRGAQFDAVTNMTHVIDQLTIDVIQETAFDPAYPLFCYVIEAMIHGQEEKFVMNMPLIALVIQTYWVNSGKLAFVNSYHMVRFICTHMGNGSIPKEAHGHYRKILGELIALEQALLKLAGHETVGRTPITHLVSALLDPHLLPPFAYHDVFTDLMQKSSRQPIIKIGDQNYDNPQNRATFINLRGRMEDLVNNLVNIYQTRVNEDHDERHVLDVAPLDENDYNPVLEKLFYYVLMPVCSNGHMCGMGVDYQNVALTLTYNGPVFADVVNAQDDILLHLENGTLKDILQAGDIRPTVDMIRVLCTSFLTCPFVTQAARVITKRDPAQSFATHEYGKDVAQTVLVNGFGAFAVADRSREAAETMFYPVPFNKLYADPLVAATLHPLLANYVTRLPNQRNAVVFNVPSNLMAEYEEWHKSPVAAYAASCQATPGAISAMVSMHQKLSAPSFICQAKHRMHPGFAMTVVRTDEVLAEHILYCSRASTSMFVGLPSVVRREVRSDAVTFEITHEIASLHTALGYSSVIAPAHVAAITTDMGVHCQDLFMIFPGDAYQDRQLHDYIKMKAGVQTGSPGNRMDHVGYTAGVPRCENLPGLSHGQLATCEIIPTPVTSDVAYFQTPSNPRGRAACVVSCDAYSNESAERLLYDHSIPDPAYECRSTNNPWASQRGSLGDVLYNITFRQTALPGMYSPCRQFFHKEDIMRYNRGLYTLVNEYSARLAGAPATSTTDLQYVVVNGTDVFLDQPCHMLQEAYPTLAASHRVMLDEYMSNKQTHAPVHMGQYLIEEVAPMKRLLKLGNKVVY

Key:
Assay in all cases: cryo-EM structure
[1] = molecular target: KSHV triplex protein Tri2 (Kaposi's sarcoma-associated herpesvirus (KSHV))
[2] = molecular target: KSHV triplex protein Tri1 (Kaposi's sarcoma-associated herpesvirus (KSHV))
[3] = molecular target: B2
cryo-EM structure = molecular target: the molecule itself

Molecule: KSHV triplex protein Tri2 (natural protein)
- stoichiometry N [1]: 2
- stoichiometry N [2]: 2

Molecule: B1
- binding result [3]: binds

Molecule: B2
- stoichiometry N (cryo-EM structure): 5 and 6
